{"source": "patent EP4480965A1", "about": "(Vect-Horus, dated 2024)", "binders": {"B1": {"name": "C5-siSOD1m-5'VP (other)", "VHH": "EVQLVESGGGVVQPGGSLKLSCVASGTDFSINFIRWYRQAPGKQREFVAGFTATGNTNYADSMKGRFTISRDNTKNAVYLQIDSLKPEDTAVYYCYMLDKWGQGTQVTVSSAAAEQKLISEEDLNGAAHHHHHHGS", "modifications": "siSOD1m-5'VP siRNA (SEQ ID NOs 465/466) linked by a stable linker to the tag"}, "B2": {"name": "VHH A-siGFPst1 bioconjugate (other)", "VHH": "B1 VHH", "modifications": "siGFPst1 siRNA (3' end of sense strand, DBCO) clicked to 3-azido-1-propanamine on the Gln of the C-terminal Q-tag"}, "B3": {"name": "VHH A6 (C5^V6) (VHH)", "VHH": "EVQLVESGGGVVQPGGSLKLSCVASGTDFSINFIRWYRQAPGKQREFVAGFTATGNTNYADSMKGRFTISRDNTKNAVYLQIDSLKPEDTAVYYCYALDKWGQGTQVTVSS"}, "B4": {"name": "VHH A17 (C5^V17) (VHH)", "VHH": "B3 VHH with A97M, L98I"}, "B5": {"name": "VHH A19 (C5^V19) (VHH)", "VHH": "B3 VHH with A97M, D99E"}, "B6": {"name": "VHH D (H3) (VHH)", "VHH": "EVQLVESGGGEVQPGGSLKLSCVASGTDFSINFVRWYRQRPGKQREWVAGFTANGDTNYPDSMKGRFTISRDNAKNTVYLQINSLKSEDTAVYYCYMLDNWGQGTQVTVSS"}, "B7": {"name": "E9 (VHH)", "VHH": "EVQLVESGGGLVQPGGSLRLSCVSSATFGGYSMGWFRQAPGKEREFVAAITWNGGIIKDYADGVMGRFTISRNSALNTVYLQMDSLKSTDTGVYVCAGDRTYYAGGYVPTSEREYAFWGQGTQVTVSS"}, "B8": {"name": "13C3-LC-VHH A (bispecific antibody)", "heavy": "QVQLQQSGPELVRPGVSVKISCKGSGYTFTDYAMHWVKQSHAKSLEWIGVISTKYGKTNYNQKFKGKATMTVDKSSSTAYMELARLTSEDSAIYYCARGDDGYSWGQGTSVTVSSAKTTPPSVYPLAPGSAAQTNSMVTLGCLVKGYFPEPVTVTWNSGSLSSGVHTFPAVLQSDLYTLSSSVTVPSSTWPSETVTCNVAHPASSTKVDKKIVPRDCGCKPCICTVPEVSSVFIFPPKPKDVLTITLTPKVTCVVVDISKDDPEVQFSWFVDDVEVHTAQTQPREEQFNSTFRSVSELPIMHQDWLNGKEFKCRVNSAAFPAPIEKTISKTKGRPKAPQVYTIPPPKEQMAKDKVSLTCMITDFFPEDITVEWQWNGQPAENYKNTQPIMDTDGSYFVYSKLNVQKSNWEAGNTFTCSVLHEGLHNHHTEKSLSHSPG", "light": "DVVMTQTPLSLPVSLGDQASISCRSGQSLVHSNGNTYLHWYLQKPGQSPKLLIYTVSNRFSGVPDRFSGSGSGSDFTLKISRVEAEDLGVYFCSQNTFVPWTFGGGTKLEIKRADAAPTVSIFPPSSEQLTSGGASVVCFLNNFYPKDINVKWKIDGSERQNGVLNSWTDQDSKDSTYSMSSTLTLTKDEYERHNSYTCEATHKTSTSPIVKSFNRNECSGSGGGGGMAEVQLVESGGGVVQPGGSLKLSCVASGTDFSINFIRWYRQAPGKQREFVAGFTATGNTNYADSMKGRFTISRDNTKNAVYLQIDSLKPEDTAVYYCYMLDKWGQGTQVTVSSAAA"}, "B9": {"name": "B8^V9 (VHH)", "VHH": "EVQLVESGGGVVQPGGSLRLSCAASGEIFSINFMRWYRQAPGKQREWVAGFTRDGSKNYPDSAKGRFTISRDNAKNTVYLQIDSLKPEDTAVYYCYMLDTWGQGTQVTVSS"}}, "key": {"[1]": {"target": "murine TfR expressed by murine neuroblastoma Neuro-2a cells (mouse, UniProt Q62351 1-763)", "sequence (Q62351 whole entry)": "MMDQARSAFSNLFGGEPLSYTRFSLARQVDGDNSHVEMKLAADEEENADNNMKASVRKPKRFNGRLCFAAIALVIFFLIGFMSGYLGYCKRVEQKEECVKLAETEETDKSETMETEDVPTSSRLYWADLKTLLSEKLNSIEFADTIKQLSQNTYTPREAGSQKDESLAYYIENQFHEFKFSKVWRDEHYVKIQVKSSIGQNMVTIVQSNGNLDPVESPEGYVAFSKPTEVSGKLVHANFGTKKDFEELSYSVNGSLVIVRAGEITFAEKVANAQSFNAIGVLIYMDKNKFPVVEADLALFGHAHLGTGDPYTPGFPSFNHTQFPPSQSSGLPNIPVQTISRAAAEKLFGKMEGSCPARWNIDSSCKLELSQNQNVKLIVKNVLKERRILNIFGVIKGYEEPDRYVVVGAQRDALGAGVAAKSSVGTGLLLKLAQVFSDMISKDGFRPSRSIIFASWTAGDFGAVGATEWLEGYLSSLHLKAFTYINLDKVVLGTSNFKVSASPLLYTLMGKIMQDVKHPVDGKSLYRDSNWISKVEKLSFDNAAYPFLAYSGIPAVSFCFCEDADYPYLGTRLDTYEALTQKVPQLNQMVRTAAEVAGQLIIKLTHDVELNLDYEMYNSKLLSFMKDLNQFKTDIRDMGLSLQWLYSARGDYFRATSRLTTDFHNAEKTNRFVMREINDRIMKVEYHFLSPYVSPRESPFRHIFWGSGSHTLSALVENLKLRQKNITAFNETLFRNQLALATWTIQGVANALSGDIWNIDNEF", "experiment": "cell-based or functional assay"}, "[2]": {"target": "T1, human transferrin receptor fused to EGFP, expressed on CHO cells (human, UniProt P02786 1-760)", "T1 sequence (P02786 whole entry, the tested form may be a part)": "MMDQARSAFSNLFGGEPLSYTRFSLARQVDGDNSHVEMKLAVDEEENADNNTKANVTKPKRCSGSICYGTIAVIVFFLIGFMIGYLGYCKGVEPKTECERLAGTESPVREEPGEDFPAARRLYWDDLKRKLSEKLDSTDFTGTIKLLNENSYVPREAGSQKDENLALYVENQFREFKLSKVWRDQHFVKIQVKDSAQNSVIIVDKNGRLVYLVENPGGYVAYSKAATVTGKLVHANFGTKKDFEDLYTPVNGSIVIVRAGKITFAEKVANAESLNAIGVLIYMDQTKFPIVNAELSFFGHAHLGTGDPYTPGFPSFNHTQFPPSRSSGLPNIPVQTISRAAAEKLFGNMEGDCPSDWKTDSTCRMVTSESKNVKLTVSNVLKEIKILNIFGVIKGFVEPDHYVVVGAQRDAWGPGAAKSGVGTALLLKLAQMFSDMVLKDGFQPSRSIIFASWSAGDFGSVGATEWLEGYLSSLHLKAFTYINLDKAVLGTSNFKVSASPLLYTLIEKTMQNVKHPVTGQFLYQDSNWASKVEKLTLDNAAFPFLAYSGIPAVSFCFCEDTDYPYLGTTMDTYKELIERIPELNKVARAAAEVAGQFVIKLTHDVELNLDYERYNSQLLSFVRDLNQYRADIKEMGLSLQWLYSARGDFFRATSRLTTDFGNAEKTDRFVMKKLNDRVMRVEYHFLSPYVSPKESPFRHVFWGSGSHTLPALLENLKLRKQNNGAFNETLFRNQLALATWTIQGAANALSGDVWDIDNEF", "experiment": "cell-based or functional assay"}, "[3]": {"target": "T1, human transferrin receptor fused to …", "experiment": "flow cytometry, CHO-hTfR-EGFP cells"}, "[4]": {"target": "T2, mouse transferrin receptor fused to EGFP, expressed on CHO cells (mouse, UniProt Q62351 1-763)", "T2 construct": "whole, on cells; also called mTfR; mouse TfR", "T2 sequence (Q62351 whole entry, the tested form may be a part)": "as the sequence (Q62351 whole entry) above", "experiment": "flow cytometry, CHO-mTfR-EGFP cells"}, "[5]": {"target": "T3, mouse TfR ectodomain fused to a mouse IgG1 Fc fragment (mouse, UniProt Q62351 89-763)", "T3 construct": "extracellular domain; produced in-house; not shown: mouse IgG1 Fc fragment", "T3 sequence (Q62351 89-763)": "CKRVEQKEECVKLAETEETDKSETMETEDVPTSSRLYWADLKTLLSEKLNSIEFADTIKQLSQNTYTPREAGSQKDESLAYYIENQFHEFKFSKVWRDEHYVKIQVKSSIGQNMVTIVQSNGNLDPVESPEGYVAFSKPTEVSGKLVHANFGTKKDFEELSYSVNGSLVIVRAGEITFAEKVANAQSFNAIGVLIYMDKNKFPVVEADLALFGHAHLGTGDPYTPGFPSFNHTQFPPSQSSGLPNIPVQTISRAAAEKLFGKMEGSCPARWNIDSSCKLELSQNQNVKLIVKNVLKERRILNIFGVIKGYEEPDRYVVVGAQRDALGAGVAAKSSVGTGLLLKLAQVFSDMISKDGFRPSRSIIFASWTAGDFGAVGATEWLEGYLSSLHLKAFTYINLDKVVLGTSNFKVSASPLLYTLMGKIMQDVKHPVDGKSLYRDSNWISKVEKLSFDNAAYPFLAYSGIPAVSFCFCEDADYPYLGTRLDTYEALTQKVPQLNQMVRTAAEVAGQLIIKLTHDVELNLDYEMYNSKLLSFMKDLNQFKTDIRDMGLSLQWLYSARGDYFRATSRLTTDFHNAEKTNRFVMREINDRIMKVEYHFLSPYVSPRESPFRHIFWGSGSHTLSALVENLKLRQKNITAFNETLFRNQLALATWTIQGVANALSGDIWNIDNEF", "experiment": "SPR (Biacore T200)"}, "[6]": {"target": "T4, rhesus monkey transferrin receptor fused to EGFP, expressed on CHO cells (rhesus monkey, UniProt H9EXL1 1-760)", "T4 construct": "also called rhTfR; rhesus monkey TfR; not shown: EGFP fused to the cytoplasmic end of the receptor", "T4 sequence (H9EXL1 entry or part of it limits assumed, form in doubt)": "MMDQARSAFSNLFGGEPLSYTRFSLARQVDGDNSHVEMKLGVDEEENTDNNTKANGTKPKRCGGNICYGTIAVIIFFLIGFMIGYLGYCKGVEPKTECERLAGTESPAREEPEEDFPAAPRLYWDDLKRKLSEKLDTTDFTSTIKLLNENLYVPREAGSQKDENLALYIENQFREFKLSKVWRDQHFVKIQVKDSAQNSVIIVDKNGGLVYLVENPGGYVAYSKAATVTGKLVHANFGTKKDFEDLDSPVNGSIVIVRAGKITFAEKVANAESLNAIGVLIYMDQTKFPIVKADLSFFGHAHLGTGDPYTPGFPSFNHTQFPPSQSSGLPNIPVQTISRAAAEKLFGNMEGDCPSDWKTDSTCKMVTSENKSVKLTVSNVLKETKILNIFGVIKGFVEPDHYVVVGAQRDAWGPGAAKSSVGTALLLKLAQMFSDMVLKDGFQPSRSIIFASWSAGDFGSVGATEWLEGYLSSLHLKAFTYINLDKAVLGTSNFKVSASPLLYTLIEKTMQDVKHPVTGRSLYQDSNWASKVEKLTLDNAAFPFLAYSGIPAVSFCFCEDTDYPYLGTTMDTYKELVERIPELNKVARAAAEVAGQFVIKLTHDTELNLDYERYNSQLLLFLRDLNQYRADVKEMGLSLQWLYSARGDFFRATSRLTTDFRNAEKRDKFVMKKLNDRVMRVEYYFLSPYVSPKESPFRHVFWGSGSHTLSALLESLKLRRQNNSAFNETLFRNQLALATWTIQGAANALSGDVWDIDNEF", "experiment": "flow cytometry, CHO-rhTfR-EGFP cells, apparent Kd"}, "[7]": {"target": "T2, mouse transferrin receptor fused to …", "experiment": "flow cytometry, CHO-mTfR-EGFP cells, apparent Kd"}, "[8]": {"target": "T1, human transferrin receptor fused to …", "experiment": "flow cytometry, CHO-hTfR-EGFP cells, apparent Kd"}, "[9]": {"target": "T2, mouse transferrin receptor fused to …", "experiment": "flow cytometry, CHO-mTfR-EGFP cells, apparent Kd", "remark": "listed apart in the source"}}, "note": "Changes are numbered by the printed parent chain. Read-outs that look alike come from different tables or passages of the source.", "data": [{"binder": "B1", "values": [{"measurement": "mean IC50 of mSOD1 mRNA downregulation, free uptake on Neuro-2a cells", "setting": "[1]", "value": 7.4, "unit": "nM"}]}, {"binder": "B2", "values": [{"measurement": "IC50 of the reduction of GFP protein levels, 6-hour pulse and chase to 120 hrs", "setting": "[2]", "value": 1.24, "unit": "nM"}, {"measurement": "IC50 of the reduction of GFP protein levels, free uptake 120 hrs", "setting": "[2]", "value": 2.73, "unit": "nM"}]}, {"binder": "B3", "values": [{"measurement": "binding result", "setting": "[3]", "value": "binds"}, {"measurement": "binding result", "setting": "[4]", "value": "binds"}]}, {"binder": "B4", "values": [{"measurement": "binding result", "setting": "[3]", "value": "binds"}, {"measurement": "binding result", "setting": "[4]", "value": "binds"}]}, {"binder": "B5", "values": [{"measurement": "binding result", "setting": "[4]", "value": "binds"}]}, {"binder": "B6", "values": [{"measurement": "kon", "setting": "[5]", "value": "5.81e+06", "unit": "M⁻¹ s⁻¹"}]}, {"binder": "B7", "values": [{"measurement": "Kd", "setting": "[6]", "value": 1540, "unit": "nM"}, {"measurement": "Kd", "setting": "[7]", "value": 1310, "unit": "nM"}, {"measurement": "Kd", "setting": "[8]", "value": 1290, "unit": "nM"}]}, {"binder": "B8", "values": [{"measurement": "Kd", "setting": "[9]", "value": 106, "unit": "nM"}]}, {"binder": "B9", "values": [{"measurement": "Kd", "setting": "[6]", "value": 24, "unit": "nM"}]}]}
